Laboratory results published in the supplement of paper PMC7125110.
± gives the standard error. This sample holds only a part of the variants without activity.

B1: glmS ribozyme (parent)
chain: AUAAAAGCGCCAGAACUACAGAAAUGUAGUUGACGAGGAGGAGGUUUAUCGAAUUUUCGGCGGAUGCCUCCAAA

Legend:
Conditions in all cases: with glucosamine-6-phosphate
glucosamine-6-phosphate [1] = variants of: B1; assay: self-cleavage kobs at 40 uM GlcN6P; higher = faster cleavage; RNA array
Summary of the method: (§1)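 Weighted Michaelis–Menten fits across concentrations supplied kcat and KM, based on kobs from one- or two-exponential decay fits to normalised per-tile medians. The data came from barcoded ribozyme variants transcribed in situ by E. coli RNA polymerase on sequenced MiSeq chips and tracked at 37 °C by a hybridised Cy3 probe. Glucosamine-6-phosphate (40 μM to 10 mM) in HEPES/KCl/Mg(OAc)2 buffer was flowed in.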

glucosamine-6-phosphate [2] = variants of: B1; assay: self-cleavage kobs at 160 uM GlcN6P; higher = faster cleavage; RNA array
Summary of the method: as §1

glucosamine-6-phosphate [3] = variants of: B1; assay: self-cleavage kobs at 640 uM GlcN6P; higher = faster cleavage; RNA array
Summary of the method: as §1

glucosamine-6-phosphate [4] = variants of: B1; assay: self-cleavage kobs at 2500 uM GlcN6P; higher = faster cleavage; RNA array
Summary of the method: as §1

glucosamine-6-phosphate [5] = variants of: B1; assay: self-cleavage kobs at 10000 uM GlcN6P; higher = faster cleavage; RNA array
Summary of the method: as §1

Variant | self-cleavage kobs at 40 uM GlcN6P (glucosamine-6-phosphate [1]) [s⁻¹] | self-cleavage kobs at 160 uM GlcN6P (glucosamine-6-phosphate [2]) [s⁻¹] | self-cleavage kobs at 640 uM GlcN6P (glucosamine-6-phosphate [3]) [s⁻¹] | self-cleavage kobs at 2500 uM GlcN6P (glucosamine-6-phosphate [4]) [s⁻¹] | self-cleavage kobs at 10000 uM GlcN6P (glucosamine-6-phosphate [5]) [s⁻¹]
A6G A42G C50A U54C C70G | < 1e-05 | < 1e-05 | < 1e-05 | < 1e-05 | < 1e-05
G40A G51A | < 1e-05 | < 1e-05 | < 1e-05 | < 1e-05 | < 1e-05
A6U G9A A33G C68U C71G | 0.000234 ± 0.0001 | – | – | – | 4.24e-05 ± 1.8e-05
A12U C16A G51C | < 1e-05 | – | – | – | –
A39G C71G | 0.000215 ± 2.7e-05 | 0.000373 ± 6.9e-05 | 0.000657 ± 8.3e-05 | 0.00189 ± 0.00037 | 0.00538 ± 0.0012
G9A A64C | < 1e-05 | < 1e-05 | < 1e-05 | < 1e-05 | –
A12U G63A | < 1e-05 | < 1e-05 | < 1e-05 | < 1e-05 | < 1e-05
A15G G32A | 6.35e-05 ± 1.4e-05 | 0.000114 ± 2.3e-05 | 0.000628 ± 7.7e-05 | 0.00103 ± 0.00018 | 0.00311 ± 0.00077
A6G G29A C34G | < 1e-05 | – | < 1e-05 | < 1e-05 | < 1e-05
U30G C61A | < 1e-05 | – | – | – | < 1e-05
G13U C58A | 4.24e-05 ± 1.8e-05 | 7.4e-05 ± 1.6e-05 | 0.000326 ± 5.2e-05 | 0.000524 ± 8.1e-05 | 0.00176 ± 0.00026
U55A G63U | < 1e-05 | – | < 1e-05 | – | < 1e-05
G13U C16G A64U C67G | < 1e-05 | – | – | – | < 1e-05
A12G A48C | < 1e-05 | – | – | – | –
G51U C58A G60U | < 1e-05 | – | – | – | < 1e-05
G7U C8G G32C U56G C61A | < 1e-05 | – | – | < 1e-05 | –
U56A C71U | 0.000282 ± 3.8e-05 | 0.000738 ± 0.00012 | 0.00243 ± 0.00036 | 0.0201 ± 0.0072 | 0.018 ± 0.0044
G37U G41U | < 1e-05 | < 1e-05 | – | < 1e-05 | < 1e-05
G37U G40U U46G U54C | < 1e-05 | < 1e-05 | < 1e-05 | < 1e-05 | < 1e-05
U31A G63A | < 1e-05 | – | – | – | < 1e-05
A14U C50U G59C C70U | < 1e-05 | – | – | – | –
U47G C68U | 4.04e-05 ± 8.8e-06 | – | 0.000601 ± 0.00012 | 0.0005 ± 0.00011 | 0.0017 ± 0.00029
G7U G60C | < 1e-05 | < 1e-05 | < 1e-05 | – | < 1e-05

Variant | self-cleavage kobs at 40 uM GlcN6P (glucosamine-6-phosphate [1]) [s⁻¹] | self-cleavage kobs at 160 uM GlcN6P (glucosamine-6-phosphate [2]) [s⁻¹] | self-cleavage kobs at 640 uM GlcN6P (glucosamine-6-phosphate [3]) [s⁻¹] | self-cleavage kobs at 2500 uM GlcN6P (glucosamine-6-phosphate [4]) [s⁻¹] | self-cleavage kobs at 10000 uM GlcN6P (glucosamine-6-phosphate [5]) [s⁻¹]
A15U G29C G43C | < 1e-05 | – | – | – | –
G9C A36U | < 1e-05 | – | < 1e-05 | < 1e-05 | –
G9C A36G | < 1e-05 | – | < 1e-05 | – | < 1e-05
C11G C58G | < 1e-05 | < 1e-05 | < 1e-05 | – | < 1e-05
G7A G13C G38A | < 1e-05 | – | – | < 1e-05 | –
A6U U31C G41A | < 1e-05 | – | – | – | < 1e-05
G38A U47A C71G | < 1e-05 | – | – | – | < 1e-05
G38U G51U U54G G66A | < 1e-05 | – | – | – | –
C8U | < 1e-05 | < 1e-05 | < 1e-05 | < 1e-05 | –
A33G U65A | < 1e-05 | – | < 1e-05 | < 1e-05 | < 1e-05
G7A A42G C70U | < 1e-05 | – | – | < 1e-05 | –
C10A A39U | < 1e-05 | < 1e-05 | < 1e-05 | – | < 1e-05
A6C U31C G59U | < 1e-05 | – | – | – | –
C10G G37U G40C G41U C50G | < 1e-05 | – | – | – | –
A33U G41A | < 1e-05 | – | < 1e-05 | – | 4.33e-05 ± 9.1e-06
G40U C61A G66A C70U | < 1e-05 | – | – | – | < 1e-05
G32C A39C G44A A48G U65C C68A C71A | < 1e-05 | – | – | – | < 1e-05
A6G U46G | < 1e-05 | < 1e-05 | – | – | 7.11e-05 ± 8.7e-06
A15G C50A | < 1e-05 | – | – | – | 3.83e-05 ± 1.4e-05
G7C C8U A39U A53U | < 1e-05 | – | – | – | < 1e-05
C11G G37C U55A C68G | < 1e-05 | – | 0.000386 ± 0.00018 | – | –
U30C A42C | < 1e-05 | < 1e-05 | – | < 1e-05 | < 1e-05
